Test results reported in the supplement of paper PMC11875167.

Experiment: observed amide hydrogen exchange rate constant kobs (stretched exponential fit, FD-normalized) (s^-1); higher = faster H/D exchange (less protection)
Conditions: pH 3 (pH read); temperature: 20 °C; D2O: 88%
Procedure, shortened: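 Exchange was started by placing Jurkat tryptic peptides in 88% D2O at pHread 3 and 20 °C, and was stopped with 0.23% formic acid at 13 times from 18 to 93,600 s. HDExaminer processed MS1 uptake from a Q-Exactive HF with no back-exchange correction, normalizing it to full-deuteration controls prepared for 24 h at 37 °C. The fit used a stretched single exponential with β = 0.8. The observed exchange rate constant kobs is defined as the rate from this fit.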

Going from AAGVNVEPFWPGLFAK to AAIDWFDGK, the “observed amide hydrogen exchange rate constant kobs” value rises from 0.000814 to 0.00155.

Going from AAPEASGTPSSDAVSR to AAQEEYVK, the “observed amide hydrogen exchange rate constant kobs” value falls from 0.00186 to 0.00112.

Compared with AAVPSGASTGIYEALELRDNDK, ADLINNLGTIAK is lower in “observed amide hydrogen exchange rate constant kobs” value: 0.00126 for the first, 0.000815 for the second.

Going from AEDNADTLALVFEAPNQEK to AELNEFLTR, the “observed amide hydrogen exchange rate constant kobs” value rises from 0.00102 to 0.00113.

First: AFAMIIDK
Second: AFLASPEYVNLPINGNGK
The “observed amide hydrogen exchange rate constant kobs” value of the first is lower: 0.000626 for the first, 0.000869 for the second.

Compared with AGAHLQGGAK, AGFAGDDAPR is lower in “observed amide hydrogen exchange rate constant kobs” value: 0.00372 for the first, 0.00357 for the second.

Compared with AGGFLMK, AGKPVICATQMLESMIK is lower in “observed amide hydrogen exchange rate constant kobs” value: 0.00127 for the first, 0.00088 for the second.

First: AGLQFPVGR
Second: AGNLGGGVVTIER
The “observed amide hydrogen exchange rate constant kobs” value of the first is higher: 0.00107 for the first, 0.000802 for the second.

First: AHSSMVGVNLPQK
Second: AIADTGANVVVTGGK
The “observed amide hydrogen exchange rate constant kobs” value of the first is lower: 0.000759 for the first, 0.00115 for the second.

First: AIIIFVPVPQLK
Second: AILVDLEPGTMDSVR
The “observed amide hydrogen exchange rate constant kobs” value of the first is lower: 0.000266 for the first, 0.0012 for the second.

Compared with AIPQLQGYLR, AIVAIENPADVSVISSR is higher in “observed amide hydrogen exchange rate constant kobs” value: 0.00091 for the first, 0.00184 for the second.

Compared with ALAAFLK, ALAENSGVK is higher in “observed amide hydrogen exchange rate constant kobs” value: 0.000792 for the first, 0.00135 for the second.

Compared with ALELTGLK, ALENDPDCR is lower in “observed amide hydrogen exchange rate constant kobs” value: 0.00115 for the first, 0.00109 for the second.

Compared with ALESPERPFLAILGGAK, ALGQNPTNAEVLK is higher in “observed amide hydrogen exchange rate constant kobs” value: 0.00092 for the first, 0.000979 for the second.

Going from ALLFIPR to ALPFWNEEIVPQIK, the “observed amide hydrogen exchange rate constant kobs” value rises from 0.000533 to 0.000814.

First: ALPGQLKPFETLLSQNQGGK
Second: ALTSELANAR
The “observed amide hydrogen exchange rate constant kobs” value of the first is lower: 0.0011 for the first, 0.00115 for the second.

Going from ALTVPELTQQVFDAK to ALWFQGR, the “observed amide hydrogen exchange rate constant kobs” value rises from 0.000761 to 0.00126.

First: AMADPEVQQIMSDPAMR
Second: AMGIMNSFVNDIFER
The “observed amide hydrogen exchange rate constant kobs” value of the first is lower: 0.00104 for the first, 0.00109 for the second.

Compared with ANTFVAELK, APEPHVEEDDDDELDSK is higher in “observed amide hydrogen exchange rate constant kobs” value: 0.00102 for the first, 0.0038 for the second.

First: APIIAVTR
Second: AQQELEEQTRR
The “observed amide hydrogen exchange rate constant kobs” value of the first is lower: 0.000401 for the first, 0.00236 for the second.

Going from AQVARPGGDTIFGK to ARFEELNADLFR, the “observed amide hydrogen exchange rate constant kobs” value rises from 0.00115 to 0.00175.

Going from ASILNTWISLK to ATENDIANFFSPLNPIR, the “observed amide hydrogen exchange rate constant kobs” value rises from 0.000492 to 0.000823.

First: ATFMVGSYGPRPEEYEFLTPVEEAPK
Second: ATISNDGATILK
The “observed amide hydrogen exchange rate constant kobs” value of the first is lower: 0.00103 for the first, 0.00117 for the second.

First: AVCMLSNTTAIAEAWAR
Second: AVDDGVNTFK
The “observed amide hydrogen exchange rate constant kobs” value of the first is lower: 0.000746 for the first, 0.00173 for the second.

Going from AVDSQILPK to AVELAANTK, the “observed amide hydrogen exchange rate constant kobs” value rises from 0.000865 to 0.00114.

Going from AVFPSIVGRPR to AVFVDLEPTVIDEVR, the “observed amide hydrogen exchange rate constant kobs” value rises from 0.000833 to 0.000889.

Going from AVLVDLEPGTMDSVR to AVTEQGAELSNEER, the “observed amide hydrogen exchange rate constant kobs” value rises from 0.00126 to 0.00216.

First: AVTEQGHELSNEER
Second: AYHEQLSVAEITNACFEPANQMVK
The “observed amide hydrogen exchange rate constant kobs” value of the first is higher: 0.00324 for the first, 0.00146 for the second.

Compared with CAADLGLNK, CILQDGR is lower in “observed amide hydrogen exchange rate constant kobs” value: 0.00234 for the first, 0.00103 for the second.

First: CPNLTHLNLSGNK
Second: DAGPLLISLK
The “observed amide hydrogen exchange rate constant kobs” value of the first is higher: 0.00139 for the first, 0.000622 for the second.

Compared with DAGTIAGLNVLR, DALSDLALHFLNK is higher in “observed amide hydrogen exchange rate constant kobs” value: 0.000899 for the first, 0.00125 for the second.

First: DDGLFSGDPNWFPK
Second: DEFEGLFK
The “observed amide hydrogen exchange rate constant kobs” value of the first is higher: 0.00189 for the first, 0.00163 for the second.

Going from DEILPTTPISEQK to DIFQEIFDK, the “observed amide hydrogen exchange rate constant kobs” value rises from 0.000626 to 0.00131.

First: DLADELALVDVIEDK
Second: DLPLLLFR
The “observed amide hydrogen exchange rate constant kobs” value of the first is higher: 0.00109 for the first, 0.000629 for the second.

Compared with DLSHIGDAVVISCAK, DLSLEEIQK is lower in “observed amide hydrogen exchange rate constant kobs” value: 0.00192 for the first, 0.00108 for the second.

Going from DLSTIEPLK to DLTDYLMK, the “observed amide hydrogen exchange rate constant kobs” value rises from 0.000669 to 0.00113.

Going from DNLTLWTSDMQGDGEEQNK to DNSTMGYMMAK, the “observed amide hydrogen exchange rate constant kobs” value falls from 0.00177 to 0.00115.

Compared with DQIYDIFQK, DQLIYNLLK is lower in “observed amide hydrogen exchange rate constant kobs” value: 0.000729 for the first, 0.000541 for the second.

First: DQQEAALVDMVNDGVEDLR
Second: DQVANSAFVER
The “observed amide hydrogen exchange rate constant kobs” value of the first is higher: 0.00161 for the first, 0.00108 for the second.

First: DRPFFAGLVK
Second: DRPFFPGLVK
The “observed amide hydrogen exchange rate constant kobs” value of the first is higher: 0.000655 for the first, 0.000625 for the second.

Compared with DRVTDALNATR, DSPSVWAAVPGK is higher in “observed amide hydrogen exchange rate constant kobs” value: 0.000789 for the first, 0.000933 for the second.

First: DSTLIMQLLR
Second: DSYVGDEAQSK
The “observed amide hydrogen exchange rate constant kobs” value of the first is lower: 0.000608 for the first, 0.00207 for the second.

Going from DTGIFLDLMHLK to DVIEEYFK, the “observed amide hydrogen exchange rate constant kobs” value falls from 0.00141 to 0.00131.

Compared with DVLFLK, DVNAAIATIK is higher in “observed amide hydrogen exchange rate constant kobs” value: 0.000617 for the first, 0.000675 for the second.

First: DVNVNFEK
Second: DYFGAHTYELLAK
The “observed amide hydrogen exchange rate constant kobs” value of the first is lower: 0.00146 for the first, 0.00186 for the second.

Going from DYFLFR to DYNVTANSK, the “observed amide hydrogen exchange rate constant kobs” value rises from 0.00105 to 0.00116.

Going from EAEAAIYHLQLFEELRR to EAFSLFDK, the “observed amide hydrogen exchange rate constant kobs” value rises from 0.00102 to 0.0018.

First: EAILDIITSR
Second: EALQDVEDENQ
The “observed amide hydrogen exchange rate constant kobs” value of the first is lower: 0.0013 for the first, 0.0022 for the second.

First: EAMEDGEIDGNK
Second: EANNFLWPFK
The “observed amide hydrogen exchange rate constant kobs” value of the first is higher: 0.0032 for the first, 0.000958 for the second.

Going from EDAANNYAR to EDLHDMLASLGK, the “observed amide hydrogen exchange rate constant kobs” value falls from 0.0026 to 0.00199.

Compared with EDQTEYLEER, EDSQRPGAHLTVK is lower in “observed amide hydrogen exchange rate constant kobs” value: 0.00222 for the first, 0.00212 for the second.

Compared with EDSVKPGAHLTVK, EESGKPGAHVTVK is higher in “observed amide hydrogen exchange rate constant kobs” value: 0.00181 for the first, 0.00233 for the second.

First: EFEPLLNWMK
Second: EFHLNESGDPSSK
The “observed amide hydrogen exchange rate constant kobs” value of the first is lower: 0.000734 for the first, 0.00132 for the second.

First: EGGLGPLNIPLLADVTR
Second: EGIPALDNFLDKL
The “observed amide hydrogen exchange rate constant kobs” value of the first is lower: 0.000844 for the first, 0.00119 for the second.

Compared with EGIPPDQQR, EGLELPEDEEEK is higher in “observed amide hydrogen exchange rate constant kobs” value: 0.00171 for the first, 0.00262 for the second.

Compared with EGMNIVEAMER, EGVHGGLINKK is higher in “observed amide hydrogen exchange rate constant kobs” value: 0.00123 for the first, 0.0019 for the second.

Going from EIAEAYLGK to EIIDLVLDR, the “observed amide hydrogen exchange rate constant kobs” value falls from 0.00148 to 0.00103.

Going from EILVGDVGQTVDDPYATFVK to EIQTAVR, the “observed amide hydrogen exchange rate constant kobs” value falls from 0.00102 to 0.001.

Going from EISLWFKPEELVDYK to EITALAPSTMK, the “observed amide hydrogen exchange rate constant kobs” value rises from 0.000892 to 0.000944.

Going from EIVLADVIDNDSWR to EKPYFPIPEEYTFIQNVPLEDR, the “observed amide hydrogen exchange rate constant kobs” value falls from 0.00114 to 0.000754.

Compared with ELGIWEPLAVK, ELISNASDALDK is higher in “observed amide hydrogen exchange rate constant kobs” value: 0.000742 for the first, 0.00184 for the second.

First: ELISNSSDALDK
Second: ELLDLLYK
The “observed amide hydrogen exchange rate constant kobs” value of the first is higher: 0.00235 for the first, 0.000866 for the second.

Compared with ELLPEIR, ELQEMDKDDESLIK is higher in “observed amide hydrogen exchange rate constant kobs” value: 0.0016 for the first, 0.00203 for the second.

Compared with ELSDFISYLQR, EMLQQSK is higher in “observed amide hydrogen exchange rate constant kobs” value: 0.000898 for the first, 0.00166 for the second.

First: ENALVQMADGNQAQLAMSHLNGHK
Second: EQFLDGDGWTSR
The “observed amide hydrogen exchange rate constant kobs” value of the first is lower: 0.00127 for the first, 0.00231 for the second.

First: EQGVLSFWR
Second: EQVANSAFVER
The “observed amide hydrogen exchange rate constant kobs” value of the first is higher: 0.00106 for the first, 0.00104 for the second.

Compared with ESKDPADETEAD, ESTGAQVQVAGDMLPNSTER is lower in “observed amide hydrogen exchange rate constant kobs” value: 0.00321 for the first, 0.00119 for the second.

Compared with ESTLHLVLR, ESVPEFPLSPPK is lower in “observed amide hydrogen exchange rate constant kobs” value: 0.00129 for the first, 0.00083 for the second.

Going from ESYSVYVYK to ETIEQEK, the “observed amide hydrogen exchange rate constant kobs” value rises from 0.000648 to 0.00152.

Going from EVDEQMLNVQNK to EVFEDAAEIR, the “observed amide hydrogen exchange rate constant kobs” value rises from 0.00132 to 0.002.

Going from EVFSMAGVVVR to EVLAGR, the “observed amide hydrogen exchange rate constant kobs” value rises from 0.00144 to 0.00244.

Compared with EVSTYIK, EVTPEGLQMVK is lower in “observed amide hydrogen exchange rate constant kobs” value: 0.000877 for the first, 0.000799 for the second.

Going from EVVEEAENGR to EWFLQAAK, the “observed amide hydrogen exchange rate constant kobs” value falls from 0.00211 to 0.00111.

Compared with FAAATGATPIAGR, FAAYFQQGDMESNGK is higher in “observed amide hydrogen exchange rate constant kobs” value: 0.00118 for the first, 0.00182 for the second.

First: FAQPGSFEYEYAMR
Second: FDLMYAK
The “observed amide hydrogen exchange rate constant kobs” value of the first is higher: 0.00134 for the first, 0.000933 for the second.

First: FEDENFILK
Second: FFEVILIDPFHK
The “observed amide hydrogen exchange rate constant kobs” value of the first is higher: 0.00131 for the first, 0.000722 for the second.

First: FGYVDFESAEDLEK
Second: FHGTVK
The “observed amide hydrogen exchange rate constant kobs” value of the first is higher: 0.00214 for the first, 0.00166 for the second.

First: FHVEEEGK
Second: FLILPDMLK
The “observed amide hydrogen exchange rate constant kobs” value of the first is higher: 0.00347 for the first, 0.000536 for the second.

First: FLPLFDR
Second: FLVYVANFDEK
The “observed amide hydrogen exchange rate constant kobs” value of the first is higher: 0.00116 for the first, 0.000821 for the second.

First: FNVWDTAGQEK
Second: FPGQLNADLRK
The “observed amide hydrogen exchange rate constant kobs” value of the first is higher: 0.00146 for the first, 0.00145 for the second.
